Results on eight molecules are retold here after PMC4053514, “Structural Diversity in the Dandelion (Taraxacum officinale) Polyphenol Oxidase Family Results in Different Responses to Model Substrates” (PLoS ONE, 2014).

Assay in all cases: spectrophotometric quinone formation, Michaelis-Menten fit
What all share (format): biochemical, Taraxacum officinale

One data set concerns T1, PPO-1.
T1 construct: mature protein without transit peptide, N-terminal Strep2 tag with enterokinase site spacer; E. coli Rosetta2 (DE3)
The settings on record: 50 mM acetate-phosphate, optimal pH (5.5), 25 °C, optimal SDS concentration as activator, O2 co-substrate. An excerpt: spectrophotometric quinone formation, Michaelis-Menten fit on PPO-1

Substrate in data set [1]: NCCc1ccc(O)c(O)c1
The settings on record: 50 mM acetate-phosphate, optimal pH (5.0), 25 °C, optimal SDS concentration as activator, O2 co-substrate. The text has this: spectrophotometric quinone formation, Michaelis-Menten fit on PPO-6

Substrate in data set [2]: NCCc1ccc(O)c(O)c1
To be noted: 50 mM acetate-phosphate, optimal pH (6.0), 25 °C, optimal SDS concentration as activator, O2 co-substrate. The text has this:
spectrophotometric quinone formation, Michaelis-Menten fit on PPO-2

Substrate in data set [3]: NCCc1ccc(O)c(O)c1
To be noted: 50 mM acetate-phosphate, optimal pH (5.0), 25 °C, optimal SDS concentration as activator, O2 co-substrate. An excerpt: spectrophotometric quinone formation, Michaelis-Menten fit on PPO-7
This is another data set of the same source.

Like-named read-outs stand apart in the source and are kept apart here.

`NCCc1ccc(O)c(O)c1` [dopamine, 4-(2-aminoethyl)benzene-1,2-diol]: the Km in the data set with PPO-1 (read-out: substrate / DA) amounted to 780 ± 140 µM.

For `O=C(O)Cc1ccc(O)c(O)c1` [dihydroxyphenylacetic acid, 2-(3,4-dihydroxyphenyl)acetic acid], the Km with PPO-1 (read-out: substrate / Dopac) came to 4950 ± 1670 µM.

`N[C@@H](Cc1ccc(O)c(O)c1)C(=O)O` [dihydroxyphenylalanine, (S)-2-amino-3-(3,4-dihydroxyphenyl)propanoic acid]: in the data set with PPO-1 (read-out: substrate / L-Dopa), the Km was determined as 8070 ± 2140 µM.

With `Cc1ccc(O)c(O)c1` [4-methylcatechol, 4-methylbenzene-1,2-diol], the Km in the data set with PPO-1 (read-out: substrate / 4MC) turned out to be 1060 ± 180 µM.

Regarding `Oc1ccccc1O` [catechol, benzene-1,2-diol], the Km in the data set with PPO-1 (read-out: substrate / CAT) came to 1190 ± 510 µM.

B1: PPO-6 (Taraxacum officinale) (protein)
chain: DPITTPDISTCVASTKGFQPKNAVRTNACCPPTLSKTVKEFVFPNDRATRIRPAAHRASPEYIAKYKAAIQKMRDLEDDDPHSFVSQAKIHCAYCNGGFTQDKHPDKELQIHNSWLFFPFHRWYLYFYERILGKLIDDPTFAIPYWNWDNPAGMSLPDFFEEGGKANPAFDAYRNSSHLAPAIADLDYDGTEKNYTCIKQLSVNLGAMNKQMIRNAGDWKSFFGGEYRAGSDPIGNKDPSVGSVEAGCHTAIHRWVGNSRLPNGEDMGNFYSAGYDPVFYVHHANVDRMWKVWKDLGIRGHIEPPDNDWRNASYVFYDENKELVRVYNKDCVRLEKLKYDYQFAPIPWKNSRPVARTKKSNIALKSVGTVKQAQDSKFPLKLDKTTKVLVKRPATNRSKEDKENANEVLLIKGVVFNGEKFVKFDVFVNDKDDVTASTAEESEFAGSFAQLPHNHGDKMLMTSSARFGLTELLEDIDAEDDESILVTLVPKVGCEEVTIGEIKVELVPIEE
notes: mature protein without transit peptide, N-terminal Strep2 tag with enterokinase site spacer; E. coli Rosetta2 (DE3); disulfide-linked tetramer
What is called kcat is the number of substrate molecules converted per active site and unit of time at saturation. B1: in data set [1], the Km turned out to be 5620 ± 1140 µM and the kcat was found to be 61.7 ± 10.6 s⁻¹.

B2: PPO-2 (Taraxacum officinale) (protein)
chain: DPIMAPDLTKCGPADLPQGAVATNCCPPFTKNIIDFKLPPPSTNLRVRPAAHLANKDYIAKFNKAIELMKALPDDDPRSFKQQAAVHCAYCDGAYDQVGFPDLDLQVHNSWLFLPFHRHYLYFFEKICGKLINDPNFAIPFWNWDTPDGMTIPAIYANKNSQLYDALRDGKHQPPSLVDLDFNGEDENLSKSKQTSTNLTIMYRQMVSSSKTASLFMGSPYRAGDEANPGGGSLESIPHGPVHIWTGDRNQPNGEDMGNFYSAARDPIFYAHHANIDRMWSVWKTLGGRRNDFTDKDWLDSAFLFYDENAELVRVKVRDALDSKKLGYVYQDVGIPWLETKPEPRLKRALSKIKKKLAVARADEHIPFAKDVFPATLDKVIKVLVPRPKKSRSKKQKDAEEEILVIEGIEVKRDEFVKFDVFVNDEDDGMRATADKTEFAGSFVNVPHKHKHGKSVKTRLRLGISELLDDLGADDDDNVLVTLVPKNKGDEVSIKGMKIEYED
notes: mature protein without transit peptide, N-terminal Strep2 tag with enterokinase site spacer; E. coli Rosetta2 (DE3)
Take B2: in data set [2], the Km was 940 ± 310 µM and the kcat was found to be 59.5 ± 13.7 s⁻¹.

B3: PPO-7 (Taraxacum officinale) (protein)
chain: APITTPDISTCIPSESGFNTEDSVRSNQCCPPATSSTIPKEFVFPKDTTTRIRPAAHRATPEYVAKYKAAIQAMRDLPDDHPHSFVSQAKIHCAYCNGGYTQVASGFPDKMLQVHNSWLFFPFHRWYLYFYERILGKLIDDPTFALPYWNWDHPAGMTLPAFFETDGKRNPVFDAYRNVTHVTPAAIVDLDYNGSDSGAPCLQQINTNLTAMYKQMVSNAADPLSFFGGVYKAGDDPFGNGDPSVGSVEAGCHTAVHRWVGNPRMMNTEDMGNFYSAGYDPAFYVHHANVDRMWKVWKDLGIPGHSEPTDPDWLNASFVFYDENEQLVRVYNKDCVNLENLKYDYELSPLPWLKNRPVPHTPKPVDNAAKPAIKLPEVKFPVKLDKTVKVYVKRPVKKRGKAEKDKVSEQLVLKGIKFNSTKFVKVDVFVNDQDDAPAILPSESEFVGSFAQLPHGRSGRGRGRGHGHSELMTSAARFGLTELLEDIGAEDDEYILVTLVPKAGSEDVTVEEITVELVPVNP
notes: mature protein without transit peptide, N-terminal Strep2 tag with enterokinase site spacer; E. coli Rosetta2 (DE3); tetramer
As to B3, in data set [3], the Km was found to be 4490 ± 2260 µM and the kcat was 22.6 ± 2.5 s⁻¹.
